# Earlier results as cited in PMC2409454.
# Target: pRb (Homo sapiens) (UniProt P06400)
# UniProt P06400, sequence (P06400 2-928): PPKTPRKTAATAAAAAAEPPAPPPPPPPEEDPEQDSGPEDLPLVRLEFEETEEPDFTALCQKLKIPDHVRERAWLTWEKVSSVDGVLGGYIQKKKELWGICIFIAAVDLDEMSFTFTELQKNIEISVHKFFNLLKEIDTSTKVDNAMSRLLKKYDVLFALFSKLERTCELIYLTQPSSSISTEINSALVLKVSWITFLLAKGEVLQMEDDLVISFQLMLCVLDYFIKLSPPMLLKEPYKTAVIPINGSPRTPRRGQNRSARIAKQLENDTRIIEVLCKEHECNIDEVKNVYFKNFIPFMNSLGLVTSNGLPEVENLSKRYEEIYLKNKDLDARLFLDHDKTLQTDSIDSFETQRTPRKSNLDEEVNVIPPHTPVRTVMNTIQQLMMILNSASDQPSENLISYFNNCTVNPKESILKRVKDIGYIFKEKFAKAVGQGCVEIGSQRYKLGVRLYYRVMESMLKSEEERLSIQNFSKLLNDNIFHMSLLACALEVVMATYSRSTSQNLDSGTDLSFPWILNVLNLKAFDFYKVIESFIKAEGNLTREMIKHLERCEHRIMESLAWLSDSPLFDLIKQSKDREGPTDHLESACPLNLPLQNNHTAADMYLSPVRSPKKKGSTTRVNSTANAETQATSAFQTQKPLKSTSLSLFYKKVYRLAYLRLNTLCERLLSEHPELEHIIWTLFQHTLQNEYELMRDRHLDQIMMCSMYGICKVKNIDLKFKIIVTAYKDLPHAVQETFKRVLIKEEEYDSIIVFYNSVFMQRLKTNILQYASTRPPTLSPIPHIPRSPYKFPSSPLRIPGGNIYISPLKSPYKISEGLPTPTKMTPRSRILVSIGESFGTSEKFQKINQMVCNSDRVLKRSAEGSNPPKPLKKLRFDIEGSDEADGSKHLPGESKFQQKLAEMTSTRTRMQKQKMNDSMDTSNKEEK
substance,measurement,value
E7 (from UniProt P03129),Kd,4.5 nM
